In US20230242658A1 (published 2023):

Legend:
[1] = target: T1, human 4-1BB on CHO-K1 cells (human, UniProt Q07011 24-255); assay: FACS, CHO-K1/hu 4-1BB cells
T1 construct: whole, on cells; also called CHO-K1/hu 4-1BB; CHO-K1/hu4-1BB

[2] = target: T2, histidine-labeled human 4-1BB protein (human, UniProt Q07011 24-186); assay: BLI Octet RED96, AHC sensor, his-tagged antigen
T2 construct: also called Human 4-1BB protein antigen (histidine-labeled); human 4-1BB protein and his tag (Acrobiosystem, #41B-H5227); not shown: histidine tag
T2 sequence (Q07011 24-186): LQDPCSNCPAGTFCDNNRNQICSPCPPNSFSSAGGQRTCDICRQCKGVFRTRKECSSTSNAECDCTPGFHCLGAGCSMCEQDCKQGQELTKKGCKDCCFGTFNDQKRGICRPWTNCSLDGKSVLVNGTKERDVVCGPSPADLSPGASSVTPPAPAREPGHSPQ
Procedure: (§1) Specifically, human 4-1BB protein and his tag (Acrobiosystem, #41B-H5227), or cynomolgus monkey 4-1BB protein and his tag (Acrobiosystem, #41B-052H4), were diluted to 400 nM with PBS buffer (pH 7.4) containing 0.1% (w/w) BSA and 0.02% (v/v) Tween 20, and incubated with the AHC sensor. A 40 nM 4-1BB antibody was incubated with the AHC sensor loaded with human 4-1BB protein or monkey 4-1BB protein at 30° C. for 3 min. The reaction mixture was incubated in PBS buffer (pH 7.4) containing 0.1% (v/w) BSA and 0.02% (v/v) Tween 20 at 30° C. for another 5 min The binding and separation signals between the 4-1BB antibody and 4-1BB protein were recorded by Octet Red 96 in real time. The affinity and association and dissociation constants were determined by Octet using software.

[3] = target: T3, histidine-labeled cynomolgus monkey 4-1BB protein (cynomolgus monkey); assay: BLI Octet RED96, AHC sensor, his-tagged antigen
T3 construct: also called Monkey 4-1BB protein antigen (histidine-labeled); cynomolgus monkey 4-1BB protein and his tag (Acrobiosystem, #41B-052H4)
Procedure: as §1

[4] = target: T4, human PD-L1 on CHO-K1 cells (human, UniProt Q9NZQ7 19-290); assay: FACS, CHO-K1/hPD-L1 cells
T4 construct: whole, on cells; also called CHO-K1/hPDL1; CHO-K1/hPD-L1
T4 sequence (Q9NZQ7 19-290): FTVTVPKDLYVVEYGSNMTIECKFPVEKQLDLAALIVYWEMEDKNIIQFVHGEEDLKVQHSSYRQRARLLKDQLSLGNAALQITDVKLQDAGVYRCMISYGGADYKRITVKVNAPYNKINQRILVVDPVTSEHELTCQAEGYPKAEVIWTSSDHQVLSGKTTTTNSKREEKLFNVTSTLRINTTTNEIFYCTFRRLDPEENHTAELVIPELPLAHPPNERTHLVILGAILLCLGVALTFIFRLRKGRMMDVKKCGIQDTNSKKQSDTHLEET

T1 sequence (Q07011 24-255): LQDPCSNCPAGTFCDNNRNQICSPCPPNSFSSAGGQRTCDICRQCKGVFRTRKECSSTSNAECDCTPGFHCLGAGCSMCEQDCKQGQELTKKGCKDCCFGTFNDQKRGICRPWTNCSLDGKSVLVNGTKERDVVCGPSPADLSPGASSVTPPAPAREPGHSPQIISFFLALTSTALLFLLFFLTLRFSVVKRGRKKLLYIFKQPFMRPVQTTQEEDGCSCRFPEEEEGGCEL

B1: PR007289 (antibody, human IgG1, V domains shown)
VH: EVQLVESGGGLVKPGGSLRLSCAASGFTFSDYYMSWFRQAPGKGLEWVSYISSSGSTQDYADSVKGRFTISRDNAKNSLYLQMNSLRAEDTAVYYCAREREPVAGTLDFDNWGQGTPVTVSS
notes: HCAb, heavy chain only, human IgG1 Fc; also called R1016P145B11
- binding result [1]: binds

B2: PR007288 (antibody, human IgG1, V domains shown)
VH: EVQLVESGGGLVKPGGSLRLSCAASGFTFSDYYMSWFRQAPGKGLEWVSYISGSGSIIDYADSVKGRFTISRDNAKNSLYLQMNSLRAEDTAVYYCSREREAVAGTLDFDYWGQGTLVTVSS
notes: HCAb, heavy chain only, human IgG1 Fc; also called R1016P144G12
- binding result [1]: binds

B3: PR007290 (antibody, human IgG1, V domains shown)
VH: EVQLVESGGGVVQPGRSLRLSCAASGFTFSDYYMSWFRQAPGKGLEWVSYISSSGTTIDYADSVKGRFTISRDNAKNSLYLQMNSLRAEDTAVYYCAREREEVAGTLDFDYWGQGTPVTVSS
notes: HCAb, heavy chain only, human IgG1 Fc; also called R1016P145C05
- binding result [1]: binds

B4: PR001830 (antibody, human IgG1, V domains shown)
VH: EVQLLESGGGLVQPGGSLRLSCTASGFTFSNYAMSWVRQAPEKGLEWVSSISGSGGSTFYADSVKGRFTISRDNSKNTLYLQMNSLRAEDTAVYFCAKEGSSETDDHYYNVDVWGQGTTVTVSS
notes: HCAb, heavy chain only, human IgG1 Fc; also called 1016P0014G8
- EC50 [1]: < 0.3 nM
- Kd [2]: 24.9 nM
- Response [2]: 0.307
- koff [2]: 0.00664 s⁻¹
- kon [2]: 266000 M⁻¹ s⁻¹
- Kd [3]: 18.1 nM
- Response [3]: 0.222
- koff [3]: 0.00347 s⁻¹
- kon [3]: 192000 M⁻¹ s⁻¹

B5: PR001763 (antibody, human IgG1, V domains shown)
VH: EVQLLESGGGLVQPGGSLRLSCTASGFTFSNYAMSWVRQAPEKGLEWVSSISGSGGSTFYADSVKGRFTISRDNSKNTLYLQMNRLTAEDTAVYYCAKEGSNGTDDYHYDIDVWGQGTTVTVSS
notes: HCAb, heavy chain only, human IgG1 Fc; also called 1016P0016E9
- binding result [1]: binds

B6: PR001833 (antibody, human IgG1, V domains shown)
VH: EVQLLESGGGLVQPGGSLRLSCAASGFTFSSYAMSWVRQAPEKGLEWVSSISGSGGSTFYADSVKGRFTISRDNSKNTLYLQMNSLRAEDTAVYFCAKEGATETDDYHFNTDVWGQGTTVTVSS
notes: HCAb, heavy chain only, human IgG1 Fc; also called 1016P0016F8
- EC50 [1]: < 0.3 nM
- Kd [2]: 23.4 nM
- Response [2]: 0.311
- koff [2]: 0.00506 s⁻¹
- kon [2]: 216000 M⁻¹ s⁻¹
- Kd [3]: 22.3 nM
- Response [3]: 0.273
- koff [3]: 0.00309 s⁻¹
- kon [3]: 139000 M⁻¹ s⁻¹

B7: PR001836 (antibody, human IgG1, V domains shown)
VH: EVQLLESGGGLVQPGGSLRLSCAASGFIFSNFAMTWVRQPPEKGLKWVSSINGSGFNTYYTDSVKGRFTISRDNSRNTLYLQMNRLTAEDTAVYFCAKEGSSETDDHYYNVDVWGQGTTVTVSS
notes: HCAb, heavy chain only, human IgG1 Fc; also called 1016P0020G4
- EC50 [1]: < 0.3 nM
- Kd [2]: 13.5 nM
- Response [2]: 0.294
- koff [2]: 0.00322 s⁻¹
- kon [2]: 239000 M⁻¹ s⁻¹
- Kd [3]: 8.89 nM
- Response [3]: 0.25
- koff [3]: 0.00147 s⁻¹
- kon [3]: 165000 M⁻¹ s⁻¹

B8: PR001774 (antibody, human IgG1, V domains shown)
VH: EVQLVESGGGLVQPGGSLRLSCAASGFTFSSFAMTWVRQAPEKGLEWVSTISGSGDTTYYADSVKGRFTISRDSSKNTLYLQMNSLRAEDSAVYFCAKEATAMASDYYYGVDVWGQGTTVTVSS
notes: HCAb, heavy chain only, human IgG1 Fc; also called 1016P0045F7
- binding result [1]: binds

B9: PR001764 (antibody, human IgG1, V domains shown)
VH: EVQLLESGGGLVQPGGSLRLSCAASGFTFSSYAMSWVRQAPEKGLEWVSAISGGGGSTYYADSVKGRFTISRDNSKNTLYLQMDSLKAEDTAVYYCAKEGTTETDDYHYNMDVWGQGTTVTVSS
notes: HCAb, heavy chain only, human IgG1 Fc; also called 1016P0022E5
- EC50 [1]: < 0.3 nM

B10: PR001831 (antibody, human IgG1, V domains shown)
VH: EVQLVESGGGVIQPGGSLRLSCEASGFTFSSYAMSWVRQAPEKGLEWVSSISGSGDSTYYADSVKGRFTISRDNSKNTLYLQMNSLRAEDTAGYHCAKEGSNGTDDYHYDIDVWGQGTSVTVSS
notes: HCAb, heavy chain only, human IgG1 Fc; also called 1016P0015C8
- EC50 [1]: < 0.3 nM

B11: PR004469 (antibody, human IgG1, V domains shown)
VH: EVQLLESGGGLVQPGGSLRLSCAASGFTFSNYAMSWFRQPPETGLKWVSSIDASGGDTYYADSVKGRFTISRDNSKNTLYLQMNSLRAEDTAVYYCAKEGSHGTDDSHYDVDVWGQGTTVTVSS
notes: HCAb, PTM variant of PR001838 (G53A), human IgG1
- binding result [1]: binds

B12: PR003550 (bispecific antibody, human IgG1, kappa, L234A L235A)
light: DIQMTQSPSTLSASVGDRVTVTCRASQSIYIWLAWYQQKPGKAPNLLIYKASSLETGVPSRFSGSGSGTEFTLTISSLQPDDFATYYCQQYYGSSRTFGQGTKVEIKRTVAAPSVFIFPPSDEQLKSGTASVVCLLNNFYPREAKVQWKVDNALQSGNSQESVTEQDSKDSTYSLSSTLTLSKADYEKHKVYACEVTHQGLSSPVTKSFNRGEC
heavy: EVQLVESGGGLVQPGGSLRLSCAASGFTFSSYWMSWVRQAPGKGLEWVANIKQEGSEKYYVDSVKGRFTISRDNAKNSLYLQMNSLRAEDTAVYYCARDRAVAGAFDIWGQGTMVTVSSASTKGPSVFPLAPSSKSTSGGTAALGCLVKDYFPEPVTVSWNSGALTSGVHTFPAVLQSSGLYSLSSVVTVPSSSLGTQTYICNVNHKPSNTKVDKKVEPKSCDKTHTCPPCPAPEAAGGPSVFLFPPKPKDTLMISRTPEVTCVVVDVSHEDPEVKFNWYVDGVEVHNAKTKPREEQYNSTYRVVSVLTVLHQDWLNGKEYKCKVSNKALGAPIEKTISKAKGQPREPQVYTLPPSREEMTKNQVSLTCLVKGFYPSDIAVEWESNGQPENNYKTTPPVLDSDGSFFLYSKLTVDKSRWQQGNVFSCSVMHEALHNHYTQKSLSLSPGEPKSSDKTHTPPPPPRTEVQLVESGGGVVQPGGSLRLSCAASGFTFSNYAMTWVRQAPEKGLEWVSSISGSGVSTYYADSVKGRFTISRDNSKNTLYLQMTRLTAEDTAVYFCAKEGSSETDDHYYNVDVWGQGTTVTVSS
notes: PD-L1x4-1BB IgG-VH: PR000265 + VH of PR001760 at heavy-chain C-terminus
- binding result [4]: binds

B13: PR001775 (antibody, human IgG1, V domains shown)
VH: EVQLLESGGGLVQSGGSLRLSCAASGFTFSSYAMSWVRQAPGKGLEWVSAISGSGGSTDYADSVKGRFTISRDNSTNTLYLQMNSLRAEDTAVYYCAKERAYDYSNYVDFDYWGQGTLVTVSS
notes: HCAb, heavy chain only, human IgG1 Fc; also called 1016P0046A9
- binding result [1]: binds

B14: PR001776 (antibody, human IgG1, V domains shown)
VH: EVQLLESGGGLVQPGGSLRLSCAASGFTFSSYAMSWVRQAPEKGLEWVSAISSSGGSTYYADSVKGRFTISRDNSKNTLYLQMNSLRAEDTAVYYCAKDGVTTPSYYYYYDMDVWGQGTTVTVSS
notes: HCAb, heavy chain only, human IgG1 Fc; also called 1016P0049C7
- binding result [1]: binds

B15: PR001768 (antibody, human IgG1, V domains shown)
VH: EVQLLESGGGLVQPGGSLRLSCAASGFTFSNYAMTWVRQAPGKGLEWVSSISGSGDSTYYADSVKGRFTISRDNSKNTLYLQMNSLRAEDTAVYYCAKEGTGTTSDYYYNVDVWGQGTTVTVSS
notes: HCAb, heavy chain only, human IgG1 Fc; also called 1016P0039B9
- binding result [1]: binds

B16: PR001771 (antibody, human IgG1, V domains shown)
VH: EVQLLESGGGLVQPGGSLRLSCAASGFTFSNYAMTWVRQPPGKGLEWVSSISGSGGSTYYADSVKGRFTISRDNSKNTLYLQMNSLRAEDTAVYYCAKEGTGTTSDYYYNVDVWGQGTTVTVSS
notes: HCAb, heavy chain only, human IgG1 Fc; also called 1016P0042C5
- binding result [1]: binds

B17: PR001842 (antibody, human IgG1, V domains shown)
VH: EVQLLESGGGLVQPGGSLRLSCAASGFTFSSYAMSWGRQAPGKGLEWVSAISGSGGSTYYADSVKGRFTISRDNSKNTLYLHMNSLRAEDTAVYYCAKEKVATTGDYYYDMDVWGQGTTVTVSS
notes: HCAb, heavy chain only, human IgG1 Fc; also called 1016P0045A3
- binding result [1]: binds

B18: PR007381 (antibody, human IgG1, V domains shown)
VH: EVQLLESGGGLVQPGGSLRLSCAASGFTFSNYAMSWVRQAPGKGLEWVSSIDASGGDTYYADSVKGRFTISRDNSKNTLYLQMNSLRAEDTAVYYCAKEGSHGTDDSHYDVDVWGQGTTVTVSS
notes: HCAb, variant of PR001838 (F37V, P40A, E42G, T43K, K46E, G53A), human IgG1
- binding result [1]: binds

B19: PR001834 (antibody, human IgG1, V domains shown)
VH: EVQLLESGGGLVQPGGSLRLSCAASGFTFSGYAMTWVRQPPEKGLEWVSSISGSGNNTFYADSVKGRFTISRDNSKNTLYLQMNSLRAEDTAVYYCAKEGTTETDDYHYNMDVWGQGTTVTVSS
notes: HCAb, heavy chain only, human IgG1 Fc; also called 1016P0019C9
- binding result [1]: binds

B20: PR001766 (antibody, human IgG1, V domains shown)
VH: EVQLLESGGGLVQPGGSLRLSCAASGFTFSSYAMSWGRQAPGKGLEWVSSISGSGGSTYYADSVKGRFTISRDNSKNTLYLQMNSLRAEDTAVYYCAKEKTGTTGDYYYDMDVWGQGTTVTVSS
notes: HCAb, heavy chain only, human IgG1 Fc; also called 1016P0034F10
- binding result [1]: binds

B21: PR001837 (antibody, human IgG1, V domains shown)
VH: EVQLLESGGGLVQPGGSLRLSCEASGFTFSSYAMSWVRQAPEKGLEWVSSISGSGGSTFYADSVKGRFTISRDNSKNTLYLQMNSLRAEDTAVYYCAKEGTTETDDYHYNMDVWGQGTTVTVSS
notes: HCAb, heavy chain only, human IgG1 Fc; also called 1016P0024B10
- binding result [1]: binds

B22: PR001781 (antibody, human IgG1, V domains shown)
VH: EVQLLESGGGLVQLGGSLRLSCAASGFTFSSYAMTWVRQAPEKGLEWVSSISGSGGNTYYADSVKGRFTISRDNSKNTLYLQMNSLRAEDTAVYYCAKERTGTTGDYYYNVDVWGQGTTVTVSS
notes: HCAb, heavy chain only, human IgG1 Fc; also called 1016P007F3
- binding result [1]: binds

B23: PR001780 (antibody, human IgG1, V domains shown)
VH: EVQLLESGGGLIQPGGSLRLSCAASGFTFSSFAMTWVRQAPGKGLEWVSTISGSGDNTYYADSVKGRFTISRDNSKNTLYLQMNSLRAEDTAVYFCAKEDTAVASDYYYNIDVWGQGTTVTVSS
notes: HCAb, heavy chain only, human IgG1 Fc; also called 1016P0058D11
- binding result [1]: binds
